Laboratory results as given in patent US20200239549A1 (KM BIOLOGICS, published 2020).

Key:
[1] = target: envelope glycoprotein B (gB) of HSV-2 strain MS (HSV-2 strain MS); test: cell-based or functional assay
[2] = target: envelope glycoprotein B (gB) of HSV-1 strain KOS (HSV-1 strain KOS, UniProt P06437 31-904); test: cell-based or functional assay
[3] = target: recombinant gB (gB1-705-strep), ectodomain of wild type gB of HSV-2 strain 333 (HSV-2 strain 333, UniProt P06763 23-727)

| Binder | 50% plaque number-reducing activity [1] | 50% plaque number-reducing activity [2] | Kd [3] |
| --- | --- | --- | --- |
| antibody D48 scFv-hFc (Fc fusion, not shown: a dimerising Fc or GST) scFv: EVQLVETGGGVVRPGRSLRLSCTTSGFSFSGSAMHWVRQAPGKGLEWVAVISHDGNIIQYHDSVKGRFTISRDNSKNVLLLQMNSLRVDDTAMYYCARDVWLLPATISYAFDFWGQGTMVTVSSASTGGGGSGGGGSGGGGSVIWMTQSPPSLSASIGDTVTITCRASQGISNSIAWYQRRPGKAPELLVYAAYRLQSGVPSRLSGSGSGAEYTLTIKNMQPEDFATYYCQQYYDNPLTFGGGTKVEIK | 0.12 nM | 1 nM | – |
| antibody D48 human-guinea pig chimeric IgG2κ (antibody, V domains shown) VH: EVQLVETGGGVVRPGRSLRLSCTTSGFSFSGSAMHWVRQAPGKGLEWVAVISHDGNIIQYHDSVKGRFTISRDNSKNVLLLQMNSLRVDDTAMYYCARDVWLLPATISYAFDFWGQGTMVTVSS VL: VIWMTQSPPSLSASIGDTVTITCRASQGISNSIAWYQRRPGKAPELLVYAAYRLQSGVPSRLSGSGSGAEYTLTIKNMQPEDFATYYCQQYYDNPLTFGGGTKVEIK | 7.5 nM | 0.94 nM | 0.76 nM |
| antibody D48 human-murine chimeric IgG2a (antibody, V domains shown, not shown: a dimerising Fc or GST) VH: EVQLVETGGGVVRPGRSLRLSCTTSGFSFSGSAMHWVRQAPGKGLEWVAVISHDGNIIQYHDSVKGRFTISRDNSKNVLLLQMNSLRVDDTAMYYCARDVWLLPATISYAFDFWGQGTMVTVSS VL: VIWMTQSPPSLSASIGDTVTITCRASQGISNSIAWYQRRPGKAPELLVYAAYRLQSGVPSRLSGSGSGAEYTLTIKNMQPEDFATYYCQQYYDNPLTFGGGTKVEIK | 1.6 nM | 1.9 nM | – |
| antibody D48 Fab (Fab, V domains shown, not shown: small tags and cut ends; a dimerising Fc or GST) VH: EVQLVETGGGVVRPGRSLRLSCTTSGFSFSGSAMHWVRQAPGKGLEWVAVISHDGNIIQYHDSVKGRFTISRDNSKNVLLLQMNSLRVDDTAMYYCARDVWLLPATISYAFDFWGQGTMVTVSS VL: VIWMTQSPPSLSASIGDTVTITCRASQGISNSIAWYQRRPGKAPELLVYAAYRLQSGVPSRLSGSGSGAEYTLTIKNMQPEDFATYYCQQYYDNPLTFGGGTKVEIK | 4.4 nM | 2.7 nM | – |
